Results reported in patent US20230122364A1 (VANDERBILT UNIVERSITY, published 2023).
Substitutions are numbered along the chain they refer to.

B1: COV2-2082 (antibody, V domains shown)
VH: EVQLVESGGGVVRPGGSLRLSCAASGFIFDDYDMTWVRQAPGKGLEWVSGISWNGGNTGYADSVKGRFTISRDNAKNSLYLQMNSLRAEDTALYHCAVIMSPIPRYSGYDWAGGAFDIWGQGTMVTVSS
VL: SSELTQDPAVSVALGQTVRITCQGDSLRSYYASWYQQKPGQVPILVIYDKNNRPSGIPDRFSGSSSGNTASLTITGAQAEDEADYYCNSRDSSGNAVVFGGGTKLTVL
B2: COV2-2113 (antibody, V domains shown)
VH: EVQLVESGGGLIQPGGSLRLSCAASEVTVSSNYMSWVRQAPGKGLEWVSLIYSGGTTYYADSVKGRFTISRDNSKNTLYLQMNSLRAEDTAVYYCARDFLRWHDLWGQGTLVTVSS
VL: DIQMTQSPSSLSASVGDRVTITCQASQDINNYLNWYQQKPGKAPKLLIYDASNLETGVPLRFSGSGSGTDFIFTISSLQPEDIATYYCQQYDNLPPVFGGGTKVEIK
B3: COV2-2103 (antibody, V domains shown)
VH: EVQLVESGGGLVQPGGSLRLSCAASGFTFSRHWMTWVRQAPGKGLEWVANIKQDGSEKYYVDSVKGRLTISRDNAKNSLYLQMNSLRAEDTAVYYCARLGFYYGGADYWGQGTLVTVSS
VL: NFMLTQPHSVSESPGKTVTISCTGSSGSIASNYVQWYQQRPGSAPTTVISEDNQRPSGVPDRFSGSIDSSSNSASLTISGLKTEDEADYYCQSYDGINRAWVFGGGTKLTVL
B4: COV2-2098 (antibody, V domains shown)
VH: EVQLLESGGGLIQPGGSLRLSCAASGFTFSNYAMSWVRQAPGKGLEWVSGIISTSGGATYNADSVRGRFTTSRDNSKNILYLQMNSLRGEDTAVYYCVKGLFDWFPLWGQGTMVTVSS
VL: DIVMTQSPATLSVSPGERAILSCRASQSVRSNLAWYQQKPGQAPRLLISGASTRATAIPARFSGSGSGTEFTLTITSLQSEDCAVYYCHQYNNWPQTFGQGTKVEIK
B5: COV2-2050 (antibody, V domains shown)
VH: QVQLVQSGAEVKKPGASVKVSCKASGYTFTDYYMHWVRQAPGQGLEWMGWINPNSRGTNYAQKFQGRVTMTRDTSISTVYMELSRLTSDDTAVYYCARVVVLGYGRPNNYYDGRNVWDYWGQGTLVTVSS
VL: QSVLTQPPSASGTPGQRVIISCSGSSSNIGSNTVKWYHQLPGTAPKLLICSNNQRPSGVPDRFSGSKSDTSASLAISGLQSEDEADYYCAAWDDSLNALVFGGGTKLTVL
B6: COV2-2068 (antibody, V domains shown)
VH: EVQLVESGGGLVQPGGSLRLSCAASGFTVSSNYMSWVRQAPGKGLEWVSVIYPGGSAFYADSVKGRFTISRHNSNNTLCLQMNSLRTEDTAVYYCARSYDILTGYRDAFDIWGQGTMVTVSS
VL: QSVLTQPPSVSGAPGQRVTISCTGSSSNIGSGSDVHWYQQLPGTAPKLLIYGNTNRPSGVPDRFSGSKSGTSASLAITGLQAEDEADYYCQSYDSRLSGFVVFGGGTKLTVL
B7: COV2-2132 (antibody, V domains shown)
VH: B2 VH
VL: B2 VL with I72T
B8: COV2-2961 (antibody, V domains shown)
VH: EVQLVQSGPEVKKPGTSVKVSCKASGFTFMSSAVQWVRQARGQRLEWIGWIVIGSGNTNYAQKFQERVTITRDMSTSTAYMELSSLRSEDTAVYYCAAPYCSSISCNDGFDIWGQGTMVTVSS
VL: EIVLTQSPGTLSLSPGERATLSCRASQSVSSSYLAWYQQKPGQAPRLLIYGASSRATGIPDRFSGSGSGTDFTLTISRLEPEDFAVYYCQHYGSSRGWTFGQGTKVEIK
B9: COV2-2046 (antibody, V domains shown)
VH: EVQLVESGGGLVQPGRSLRLSCAASGFTFDDYAMHWVRQAPGKGLEWVSGISWNSGSIAYTDSVKGRFTISRDNAKNSLYLQMNSLRAEDTALYYCAKAHSTGHQYYYGMDVWGQGTTVTVSS
VL: DIQMTQSPSSLSASVGDRVTITCRASQSISSFLNWYQQKPGKAPKLLIYAAFNLQSGVPSRFSGSGSGTDFTLTISSLQSEDFATYYCQQSYNTPYTFGQGTKLEIK

What follows are binders tested against T1, prefusion conformation-stabilized SARS-CoV-2 spike ectodomain (S2Pecto) protein (SARS-CoV-2, UniProt P0DTC2 14-1213; P10104 458-484) (assay: competition ELISA on coated S2Pecto; hACE2-FLAG binding inhibited).

Row | Binder | IC50
1 | B1 | 0.043 µg/mL
2 | B2 | 0.06 µg/mL
3 | B3 | 0.079 µg/mL
4 | B4 | 0.048 µg/mL
5 | B5 | 0.063 µg/mL
6 | B6 | 0.166 µg/mL

What follows are binders tested against T1, prefusion conformation-stabilized … (assay: ELISA on coated S2Pecto).

Row | Binder | EC50
7 | B1 | 0.0011 µg/mL
8 | B2 | 0.0018 µg/mL
9 | B3 | 0.0029 µg/mL
10 | B4 | 0.0013 µg/mL
11 | B5 | 0.0017 µg/mL
12 | B6 | 0.0074 µg/mL

These binders were tested against T1, prefusion conformation-stabilized … (assay: ELISA, purified IgG).

Row | Binder | OD 450 nm
13 | B1 | 4.3 OD 450 nm
14 | B2 | 4.4 OD 450 nm
15 | B7 | 4.4 OD 450 nm
16 | B8 | 3.6 OD 450 nm
17 | B9 | 4.3 OD 450 nm
18 | B3 | 4.3 OD 450 nm
19 | B4 | 4.3 OD 450 nm
20 | B5 | 4.3 OD 450 nm
21 | B6 | 4.3 OD 450 nm
